The text below walks through data of patent publication US20050063973A1 (URIFER, published 2005).

This experiment concerns the target T1, TMF/ARA160 (endogenous protein of C2C12, NIH3T3 and T127 cells) (UniProt B9EKI3 1-1091).
T1 construct: Endogenous protein, immunoprecipitated from whole cell extracts or stained in fixed cells; also called Gate-Keeper; GK
T1 sequence (looked up): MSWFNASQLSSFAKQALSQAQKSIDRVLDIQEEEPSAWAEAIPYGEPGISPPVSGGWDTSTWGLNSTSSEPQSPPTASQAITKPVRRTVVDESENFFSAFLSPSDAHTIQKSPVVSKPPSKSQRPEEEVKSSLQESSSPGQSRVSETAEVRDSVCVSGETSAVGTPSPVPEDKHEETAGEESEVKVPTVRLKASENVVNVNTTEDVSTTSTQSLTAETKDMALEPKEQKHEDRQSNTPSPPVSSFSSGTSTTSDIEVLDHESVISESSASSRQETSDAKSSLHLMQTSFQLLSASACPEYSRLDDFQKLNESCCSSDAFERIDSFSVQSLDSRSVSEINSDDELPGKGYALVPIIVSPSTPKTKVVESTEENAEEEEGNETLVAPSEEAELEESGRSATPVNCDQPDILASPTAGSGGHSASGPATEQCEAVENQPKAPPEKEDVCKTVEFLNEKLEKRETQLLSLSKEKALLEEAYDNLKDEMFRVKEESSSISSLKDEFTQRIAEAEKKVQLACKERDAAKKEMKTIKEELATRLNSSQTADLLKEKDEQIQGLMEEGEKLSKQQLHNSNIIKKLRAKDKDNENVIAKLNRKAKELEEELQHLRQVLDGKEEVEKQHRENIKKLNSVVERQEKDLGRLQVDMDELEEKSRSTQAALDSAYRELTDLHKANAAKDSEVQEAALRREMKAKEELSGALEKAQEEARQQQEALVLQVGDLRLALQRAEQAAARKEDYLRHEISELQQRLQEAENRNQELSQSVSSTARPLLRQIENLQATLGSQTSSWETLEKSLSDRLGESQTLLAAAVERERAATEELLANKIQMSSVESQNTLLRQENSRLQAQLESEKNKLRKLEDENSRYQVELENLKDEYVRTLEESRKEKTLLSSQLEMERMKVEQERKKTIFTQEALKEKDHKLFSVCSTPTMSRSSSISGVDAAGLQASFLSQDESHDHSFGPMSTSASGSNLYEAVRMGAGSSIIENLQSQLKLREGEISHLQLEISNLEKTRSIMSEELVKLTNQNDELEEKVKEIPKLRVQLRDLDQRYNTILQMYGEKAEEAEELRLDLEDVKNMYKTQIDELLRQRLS
Nature of the experiment: co-immunoprecipitation with αTMF/ARA160 from C2C12 extracts, Western blot with αStat1. The text has this: FIG. 6 is an immunoprecipitation showing that TMF/ARA160 associates with cyclin D1 and Stat3 but not with Stat1, in serum starved C2C12 cells. […] Whole cell extracts from actively growing (lanes 1 and 5) or serum-starved cells (lanes 2-4 and 6-8) which were either untreated (lanes 1-4) or treated with MG132 (lanes 5-8), were resolved by 7% SDS-PAGE and exposed to αStat3 (upper panel); αcyclin D1 (middle panel); or αStat1 antibodies (lower panel), in a Western-blot analysis. […] TMF/ARA160 was immunoprecipitated from the extracts described in A. Precipitates were resolved by 7% SDS-PAGE and were reacted with αStat3 (upper panel); αStat1 (middle panel); or αcyclin D1 antibodies (lower panel), in a Western-blot analysis.

B1: Stat1 (endogenous protein of C2C12 cells) (other, UniProt P42225 2-749, looked up)
chain: SQWFELQQLDSKFLEQVHQLYDDSFPMEIRQYLAQWLEKQDWEHAAYDVSFATIRFHDLLSQLDDQYSRFSLENNFLLQHNIRKSKRNLQDNFQEDPVQMSMIIYNCLKEERKILENAQRFNQAQEGNIQNTVMLDKQKELDSKVRNVKDQVMCIEQEIKTLEELQDEYDFKCKTSQNREGEANGVAKSDQKQEQLLLHKMFLMLDNKRKEIIHKIRELLNSIELTQNTLINDELVEWKRRQQSACIGGPPNACLDQLQTWFTIVAETLQQIRQQLKKLEELEQKFTYEPDPITKNKQVLSDRTFLLFQQLIQSSFVVERQPCMPTHPQRPLVLKTGVQFTVKSRLLVKLQESNLLTKVKCHFDKDVNEKNTVKGFRKFNILGTHTKVMNMEESTNGSLAAELRHLQLKEQKNAGNRTNEGPLIVTEELHSLSFETQLCQPGLVIDLETTSLPVVVISNVSQLPSGWASILWYNMLVTEPRNLSFFLNPPCAWWSQLSEVLSWQFSSVTKRGLNADQLSMLGEKLLGPNAGPDGLIPWTRFCKENINDKNFSFWPWIDTILELIKNDLLCLWNDGCIMGFISKERERALLKDQQPGTFLLRFSESSREGAITFTWVERSQNGGEPDFHAVEPYTKKELSAVTFPDIIRNYKVMAAENIPENPLKYLYPNIDKDHAFGKYYSRPKEAPEPMELDDPKRTGYIKTELISVSEVHPSRLQTTDNLLPMSPEEFDEMSRIVGPEFDSMMSTV
Turning to B1, the binding result is recorded as “no binding”.
